Experimental data taken from doi:10.1101/2022.10.06.511153 (bioRxiv, 2022).

B1: MksG (6xHis-SUMO construct for crystallization) (natural protein, Corynebacterium glutamicum)
chain: MPLFIDDALHRSKKYFHAHLSELLLGEFAGLSLPLHPPTAAKAAADIDATREFIRQWEGRDDVEYAIRNWSPVGLGKTEVPVRLTLNTTEELVVFAQVEDEWSSLHERFSQLSGFTAEVVAKHVSLWRSLSNDDLSKAVLVVDWFLKHPNSGLLKRAVAVEGVHTKWLENHRVLIETLVADKRGEPGRADLGLGDAEARVRLRFHSVDAPAGLTDIEVPLSNLCELQEPQVILMVENLDSFLALPTWPGVTIAWGAGYRAVDIVRGPYFSNGRLLYWGDLDLDGFKILDGVRSHVPHTESVLMNSETVSRWRYLGVADREFKAESFDNLHDFESDALDLLITDGELRIEQERIRLDVAVEEIEKVIRG

What was measured:
[1] = target: MksB (Corynebacterium glutamicum) (UniProt Q8NLY2); test: BLI
[2] = target: MksE (Corynebacterium glutamicum) (UniProt Q8NLY1); test: BLI
crystal structure = target: the molecule itself; test: crystal structure

Molecule	Kd [1]	Kd [2]	stoichiometry N (crystal structure)
MksF (from UniProt Q8NLY0 1-495) (natural protein)	4.94 µM	2.17 µM	–
B1	–	–	2
